According to the Immune Epitope Database (IEDB):

Assays:
Experiment in all cases: IEDB peptide-MHC binding, purified MHC/competitive/radioactivity; filed as Kd, often an IC50 or EC50 that approximates it; ≥ and ≤ were set here for values at or beyond the usual limits of such assays
HLA-A*03:01 = molecular target: HLA-A*03:01
HLA-A*11:01 = molecular target: HLA-A*11:01
HLA-A*31:01 = molecular target: HLA-A*31:01
HLA-A*33:01 = molecular target: HLA-A*33:01
HLA-A*68:01 = molecular target: HLA-A*68:01
[1] = source organism: SARS coronavirus Tor2
[2] = source organism: Vaccinia virus WR
[3] = source organism: Dengue virus 2 Jamaica/1409/1983
[4] = source organism: Dengue virus 1 Brazil/97-11/1997
[5] = source organism: Mammarenavirus guanaritoense
[6] = source organism: Mammarenavirus brazilense
[7] = source organism: Dengue virus 4 Philippines/H241/1956

AFHTPAFDK gave a Kd (HLA-A*03:01; [1]) of 1430 nM, a Kd (HLA-A*11:01; [1]) of 957 nM and a Kd (HLA-A*31:01; [1]) of 5640 nM. The Kd (HLA-A*33:01; [1]) was no less than 33200 nM and the Kd (HLA-A*68:01; [1]) was 8590 nM.
AFLLRHYYNK was tested, and the Kd (HLA-A*03:01; [2]) was 749 nM, the Kd (HLA-A*11:01; [2]) was 225 nM and the Kd (HLA-A*31:01; [2]) was 23.8 nM. For the same sequence, the Kd (HLA-A*33:01; [2]) was 1910 nM and the Kd (HLA-A*68:01; [2]) was 5340 nM.
ALNDTWKMEK was tested, and the Kd (HLA-A*03:01; [3]) was 82.4 nM and the Kd (HLA-A*11:01; [3]) was 392 nM.
In the case of ATCVYNMMGK, the Kd (HLA-A*03:01; [4]) is reported as 1.91 nM and the Kd (HLA-A*11:01; [4]) is reported as 20.1 nM.
CAVHLIIYY showed a Kd (HLA-A*03:01; [2]) of 10100 nM, a Kd (HLA-A*11:01; [2]) of 788 nM and a Kd (HLA-A*31:01; [2]) of 4950 nM. For the same sequence, the Kd (HLA-A*33:01; [2]) was no less than 21100 nM and the Kd (HLA-A*68:01; [2]) was 24.5 nM.
CCNWLDRCR showed a Kd (HLA-A*03:01; [5]) of no less than 78000 nM, a Kd (HLA-A*11:01; [5]) of 18100 nM and a Kd (HLA-A*31:01; [5]) of 13500 nM. The Kd (HLA-A*33:01; [5]) was no less than 56800 nM and the Kd (HLA-A*68:01; [5]) was no less than 77600 nM.
CSSLTEEFYH gave a Kd (HLA-A*11:01; [6]) of 8680 nM, a Kd (HLA-A*31:01; [6]) of 3360 nM and a Kd (HLA-A*68:01; [6]) of no less than 31900 nM.
DIEIGNFYIR showed a Kd (HLA-A*03:01; [2]) of 845 nM, a Kd (HLA-A*11:01; [2]) of 10400 nM and a Kd (HLA-A*31:01; [2]) of 822 nM. The Kd (HLA-A*33:01; [2]) was 129 nM and the Kd (HLA-A*68:01; [2]) was 49 nM.
Work on DQDALFAYTK yielded a Kd (HLA-A*03:01; [1]) of 4250 nM, a Kd (HLA-A*11:01; [1]) of 2600 nM and a Kd (HLA-A*31:01; [1]) of 3720 nM. The Kd (HLA-A*33:01; [1]) was 9570 nM and the Kd (HLA-A*68:01; [1]) was 1270 nM.
In the case of DSMDVLAEK, the Kd (HLA-A*03:01; [2]) is reported as 404 nM, the Kd (HLA-A*11:01; [2]) is reported as 1.73 nM and the Kd (HLA-A*31:01; [2]) is reported as 988 nM. For the same sequence, the Kd (HLA-A*33:01; [2]) was 1.81 nM and the Kd (HLA-A*68:01; [2]) was 0.122 nM.
DTSEKYSKGY was tested, and the Kd (HLA-A*03:01; [2]) was no less than 70100 nM, the Kd (HLA-A*11:01; [2]) was 886 nM and the Kd (HLA-A*31:01; [2]) was no less than 70000 nM. It also gave a Kd (HLA-A*33:01; [2]) of no less than 70000 nM and a Kd (HLA-A*68:01; [2]) of 533 nM.
DTTPFGQQR showed a Kd (HLA-A*33:01; [7]) of 94.5 nM and a Kd (HLA-A*68:01; [7]) of 91 nM.
In the case of EFGRAKGSR, the Kd (HLA-A*33:01; [7]) is reported as 38.1 nM.
ELRRAAIDR showed a Kd (HLA-A*03:01; [2]) of no less than 78000 nM, a Kd (HLA-A*11:01; [2]) of no less than 77900 nM and a Kd (HLA-A*31:01; [2]) of 18100 nM. It also gave a Kd (HLA-A*33:01; [2]) of 1090 nM and a Kd (HLA-A*68:01; [2]) of 83.2 nM.
ELTLDCEPR was tested, and the Kd (HLA-A*33:01; [7]) was 32 nM and the Kd (HLA-A*68:01; [7]) was 229 nM.
With EQLSKYVEK the Kd (HLA-A*03:01; [2]) was 149 nM, the Kd (HLA-A*11:01; [2]) was 9.75 nM and the Kd (HLA-A*31:01; [2]) was 506 nM. It also gave a Kd (HLA-A*33:01; [2]) of 832 nM and a Kd (HLA-A*68:01; [2]) of 161 nM.
With ESIEDKFDY the Kd (HLA-A*03:01; [2]) was 7530 nM, the Kd (HLA-A*11:01; [2]) was 11300 nM and the Kd (HLA-A*31:01; [2]) was no less than 34500 nM. It also gave a Kd (HLA-A*33:01; [2]) of no less than 77700 nM and a Kd (HLA-A*68:01; [2]) of 1720 nM.
Sequence ESRPFDLIK has a Kd (HLA-A*03:01; [2]) of 8370 nM, a Kd (HLA-A*11:01; [2]) of 1320 nM and a Kd (HLA-A*31:01; [2]) of 17900 nM. The Kd (HLA-A*33:01; [2]) was 3400 nM and the Kd (HLA-A*68:01; [2]) was 22.1 nM.
ETFKIDAVRY was tested, and the Kd (HLA-A*03:01; [2]) was no less than 70100 nM, the Kd (HLA-A*11:01; [2]) was no less than 25100 nM and the Kd (HLA-A*31:01; [2]) was no less than 41300 nM. The Kd (HLA-A*33:01; [2]) was no less than 70000 nM and the Kd (HLA-A*68:01; [2]) was 46.9 nM.
With ETSPGEIKPK the Kd (HLA-A*03:01; [2]) was no less than 35000 nM, the Kd (HLA-A*11:01; [2]) was 1520 nM and the Kd (HLA-A*31:01; [2]) was no less than 70000 nM. For the same sequence, the Kd (HLA-A*33:01; [2]) was no less than 61900 nM and the Kd (HLA-A*68:01; [2]) was 47.5 nM.
